Results taken from patent US20240141039A1 (AGENUS, published 2024).

What was measured:
[1] = target: T1, full-length isoform 2 ECD of human CD96 with a C89S mutation (His-tagged) (human, UniProt P40200 22-519); experiment: SPR Biacore T200, geomean of experiments #1 and #2
T1 construct: also called His-tagged isoform 2 of human CD96 with a C89S mutation; human CD96 extracellular domain isoform 2 C89S
T1 sequence: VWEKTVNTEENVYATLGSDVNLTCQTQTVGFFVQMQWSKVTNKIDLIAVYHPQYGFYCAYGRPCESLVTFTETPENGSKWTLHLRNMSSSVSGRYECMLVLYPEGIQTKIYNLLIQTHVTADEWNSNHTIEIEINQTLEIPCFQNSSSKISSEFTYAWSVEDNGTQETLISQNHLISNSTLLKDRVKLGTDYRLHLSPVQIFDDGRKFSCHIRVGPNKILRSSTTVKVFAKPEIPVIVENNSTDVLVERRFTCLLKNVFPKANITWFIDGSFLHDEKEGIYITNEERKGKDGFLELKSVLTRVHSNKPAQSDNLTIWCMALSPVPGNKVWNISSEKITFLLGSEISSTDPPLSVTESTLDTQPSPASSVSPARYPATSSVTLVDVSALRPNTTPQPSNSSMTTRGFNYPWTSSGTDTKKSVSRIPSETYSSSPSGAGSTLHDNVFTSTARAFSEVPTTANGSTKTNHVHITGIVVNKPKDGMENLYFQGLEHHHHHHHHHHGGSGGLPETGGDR
Method: (§1) Briefly, surface plasmon resonance experiments were performed using a Biacore T200 instrument, and the association rate (kₐ), dissociation rate (kd), and dissociation constant (KD) were calculated from each experiment using a 1:1 binding model with Biacore T200 Evaluation Software.
(§2) Multispecific molecules were captured using a 30-sec injection at a flow rate of 10 μl/min to reach about 350 resonance units (RUs). […] The sensor chip was regenerated between cycles with two 30-sec injections of 10 mM glycine, pH 1.5. Sensorgrams were evaluated and fit to a simple Langmuir 1:1 interaction model using the global data analysis option of BIAevaluation 3.0 software. Data quality was verified by visually inspecting deviations and curve fitting, and by evaluating the parameters of Rₘₐₓ, Chi2, and Tc.

[2] = target: T2, full-length ECD of cynomolgus monkey TIGIT (His-tagged) (cynomolgus monkey); experiment: SPR Biacore T200, geomean of experiments #1 and #2
T2 construct: also called His-tagged cynomolgus monkey TIGIT; cyno TIGIT extracellular domain
Method: as §1, §2

[3] = target: T1, full-length isoform 2 ECD of human CD96 …; experiment: SPR Biacore T200, Protein A capture, 1:1 model, experiment #2
Method: as §1, §2

[4] = target: T2, full-length ECD of cynomolgus monkey …; experiment: as above
Method: as §1, §2

[5] = target: T3, full-length human FcγRIIIa variant V/V expressed on CHO cells (human, UniProt P08637 17-254); experiment: flow cytometry on CHO cells expressing human FcγRIIIa variant V/V, PE anti-human IgG Fc detection
T3 construct: whole, on cells; also called human FcγRIIIa-CHO (variant V/V); human FcγRIIIa (V/V) CHO cells
Method: The ability of anti-TIGIT×CD96 multispecific molecules to bind to variant V/V or variant F/F of human FcγRIIIa expressed on the surface of CHO cells was assessed. Briefly, CHO cells were transfected with a vector encoding full-length human FcγRIIIa (human FcγRIIIa-CHO) variant V/V or F/F, and clones stably expressing FcγRIIIa (variant V/V or variant F/F) were selected.
For the antibody binding assay, a frozen aliquot of human FcγRIIIa-CHO (variant V/V or variant F/F) cells was thawed at 37° C. and then transferred to a tube containing DPBS supplemented with 0.5% Bovine Serum Albumin and 0.05% Sodium Azide (FACS Buffer). Cells were centrifuged at 300 g for five minutes. The supernatant was discarded, and cells resuspended in FACS buffer were seeded in a 96-well U-bottom tissue culture plate at a density of 2×10⁵ cells per well in 50 μL. In a separate microplate, a 2× concentrated intermediate stock of each multispecific molecule was prepared. […] After a 30-minute incubation on ice, the cells were washed twice with cold FACS Buffer, and the cells were analyzed by flow cytometry (BD LSR Fortessa Flow Cytometer). The data were analyzed using the FlowJo software by sequentially gating the FSC-A vs. SSC-A, and SSC-H vs. SSC-A. Mean fluorescence intensity (MFI) values for PE were calculated, and the data were plotted by GraphPad Prism software.

T3 sequence (P08637 other isoform, or with tags, fused parts or gaps mutant limits assumed): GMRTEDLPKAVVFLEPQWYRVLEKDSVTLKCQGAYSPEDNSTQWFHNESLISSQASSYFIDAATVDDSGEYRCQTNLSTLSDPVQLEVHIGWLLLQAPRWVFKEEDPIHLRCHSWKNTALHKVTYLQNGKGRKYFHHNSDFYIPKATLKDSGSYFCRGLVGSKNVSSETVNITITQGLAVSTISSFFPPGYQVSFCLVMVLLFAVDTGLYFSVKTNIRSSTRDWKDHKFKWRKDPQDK

B1: anti-TIGIT×CD96 multispecific molecule BA123 (bispecific antibody, human IgG1, kappa, lambda)
heavy 1: QVQLVQSGAEVKKPGASVKVSCKASGYTFTSYGISWVRQAPGQGLEWMGWISAYNANTNYAQKLQGRVTMTTDTSTSTAYMELRSLRSDDTAVYYCARSAGVLGGMDVWGRGTLVTVSSASTKGPSVFPLAPSSKSTSGGTAALGCLVKDYFPEPVTVSWNSGALTSGVHTFPAVLQSSGLYSLSSVVTVPSSSLGTQTYICNVNHKPSNTKVDKRVEPKSCDKTHTCPPCPAPELLGGPDVFLFPPKPKDTLMISRTPEVTCVVVDVSHEDPEVKFNWYVDGVEVHNAKTKPREEQYNSTYRVVSVLTVLHQDWLNGKEYKCKVSNKALPAPIEKTISKAKGQPREPQVYTLPPSREEMTKNQVSLSCAVKGFYPSDIAVEWESNGQPENNYKTTPPVLDSDGSFFLVSKLTVDKSRWQQGNVFSCSVMHEALHNHYTQKSLSLSPG
light 1: not shown
heavy 2: EVQLVQSGAEVKKPGSSVKVSCKASGYTFASYGISWVRQAPGQGLEWMGGITPFFNRVDVAEKFQGRVTITADKSTSTAYIELSSLRSEDTAVYYCARDLRRGGVGDAFDIWGRGTLVTVSSASTKGPSVFPLAPSSKSTSGGTAALGCLVKDYFPEPVTVSWNSGALTSGVHTFPAVLQSSGLYSLSSVVTVPSSSLGTQTYICNVNHKPSNTKVDKRVEPKSCDKTHTCPPCPAPELLGGPDVFLFPPKPKDTLMISRTPEVTCVVVDVSHEDPEVKFNWYVDGVEVHNAKTKPREEQYNSTYRVVSVLTVLHQDWLNGKEYKCKVSNKALPLPEEKTISKAKGQPREPQVYTLPPSREEMTKNQVSLWCLVKGFYPSDIAVEWESNGQPENNYKTTPPVLDSDGSFFLYSKLTVDKSRWQQGNVFSCSVMHEALHNHYTQKSLSLSPG
light 2: QSALTQPRSVSGSPGQSVTISCTGTSPDVGSHAYRSWYQQHPGKAPKLMIYEVSYRPSGVSNRFSGSKSGNTASLTISGLQAEDEADYYCSSYPPSSATVFGAGTKLTVLGQPKAAPSVTLFPPSSEELQANKATLVCLISDFYPGAVTVAWKADSSPVKAGVETTTPSKQSNNKYAASSYLSLTPEQWKSHRSYSCQVTHEGSTVEKTVAPTEC
notes: copies: 1 + 1 + 1 + 1
[1]
  Kd: 81.9 nM
[2]
  Kd: 4.5 nM
[3]
  Kd: 85 nM
  koff: 0.00083 s⁻¹
  kon: 9760 M⁻¹ s⁻¹
[4]
  Kd: 4.27 nM
  koff: 0.00135 s⁻¹
  kon: 315000 M⁻¹ s⁻¹
[5]
  EC50 (read off the curve): ~0.3 µg/mL

B2: anti-TIGIT×CD96 multispecific molecule BA127 (bispecific antibody, human IgG1, kappa, lambda)
heavy 1: QVQLVQSGAEVKKPGASVKVSCKASGYTFTTYALHWVRQAPGQRLEWMGWINTGSGDTKYSQKFQGRVTITRDTSASTAYMELSSLRSEDTAVYYCARSLGVYYGMDVWGQGTLVTVSSASTKGPSVFPLAPSSKSTSGGTAALGCLVKDYFPEPVTVSWNSGALTSGVHTFPAVLQSSGLYSLSSVVTVPSSSLGTQTYICNVNHKPSNTKVDKRVEPKSCDKTHTCPPCPAPELLGGPDVFLFPPKPKDTLMISRTPEVTCVVVDVSHEDPEVKFNWYVDGVEVHNAKTKPREEQYNSTYRVVSVLTVLHQDWLNGKEYKCKVSNKALPAPIEKTISKAKGQPREPQVYTLPPSREEMTKNQVSLSCAVKGFYPSDIAVEWESNGQPENNYKTTPPVLDSDGSFFLVSKLTVDKSRWQQGNVFSCSVMHEALHNHYTQKSLSLSPG
light 1: not shown
heavy 2: EVQLVQSGAEVKKPGSSVKVSCKASGYTFASYGISWVRQAPGQGLEWMGGITPFFNRVDVAEKFQGRVTITADKSTSTAYIELSSLRSEDTAVYYCARDLRRGGVGDAFDIWGRGTLVTVSSASTKGPSVFPLAPSSKSTSGGTAALGCLVKDYFPEPVTVSWNSGALTSGVHTFPAVLQSSGLYSLSSVVTVPSSSLGTQTYICNVNHKPSNTKVDKRVEPKSCDKTHTCPPCPAPELLGGPDVFLFPPKPKDTLMISRTPEVTCVVVDVSHEDPEVKFNWYVDGVEVHNAKTKPREEQYNSTYRVVSVLTVLHQDWLNGKEYKCKVSNKALPLPEEKTISKAKGQPREPQVYTLPPSREEMTKNQVSLWCLVKGFYPSDIAVEWESNGQPENNYKTTPPVLDSDGSFFLYSKLTVDKSRWQQGNVFSCSVMHEALHNHYTQKSLSLSPG
light 2: QSALTQPRSVSGSPGQSVTISCTGTSPDVGSHAYRSWYQQHPGKAPKLMIYEVSYRPSGVSNRFSGSKSGNTASLTISGLQAEDEADYYCSSYPPSSATVFGAGTKLTVLGQPKAAPSVTLFPPSSEELQANKATLVCLISDFYPGAVTVAWKADSSPVKAGVETTTPSKQSNNKYAASSYLSLTPEQWKSHRSYSCQVTHEGSTVEKTVAPTEC
notes: Anti-CD96 arm = BA139, anti-TIGIT arm = BA150; copies: 1 + 1 + 1 + 1
[1]
  Kd: 19.6 nM
[2]
  Kd: 4 nM
[3]
  Kd: 19.7 nM
  koff: 0.000796 s⁻¹
  kon: 40500 M⁻¹ s⁻¹
[4]
  Kd: 3.7 nM
  koff: 0.00129 s⁻¹
  kon: 348000 M⁻¹ s⁻¹
[5]
  EC50 (read off the curve): ~0.2 µg/mL
